{
  "source": "patent US7291492B2",
  "about": "“Histone deacetylase 9” (The Institute of Cancer Research, priority 2001, dated 2007)",
  "tested_on": "histone H4 peptide",
  "test": "in-vitro histone deacetylase assay with anti-FLAG immunoprecipitated HDAC, [3H]acetyl-labelled histone H4 peptide",
  "type": "biochemical",
  "conditions": "FLAG-tagged HDAC from 293T cells, FIG. 5A",
  "protocol": "A. HDAC9 deacetylates histone H4 peptide. 293T cells were transfected with FLAG-tagged HDAC. Whole cell lysates were produced and the HDACs precipitated with anti-FLAG agarose. The beads were assayed for their ability to deacetylate a [^3H]acetyl-labelled peptide corresponding to the N-Terminus of histone H4. Free acetate was extracted and measured by scintillation counting.\nHigher activities of HDAC9 have been detected towards peptide substrates derived from histone H3 than from histone H4 (FIGS. 7A and B).",
  "data": [
    {"molecule": "HDAC9: wild-type histone deacetylase 9, a 1069 amino acid polypeptide, class II histone deacetylase (protein, left off: a dimerising Fc or GST, wild-type histone deacetylase 9, a 1069 amino acid polypeptide, class II histone deacetylase) MHSMISSVDVKSEVPVGLEPISPLDLRTDLRMMMPVVDPVVREKQLQQELLLIQQQQQIQKQLLIAEFQKQHENLTRQHQAQLQEHIKLQQELLAIKQQQELLEKEQKLEQQRQEQEVERHRREQQLPPLRGKDRGRERAVASTEVKQKLQEFLLSKSATKDTPTNGKNHSVSRHPKLWYTAAHHTSLDQSSPPLSGTSPSYKYTLPGAQDAKDDFPLRKTASEPNLKVRSRLKQKVAERRSSPLLRRKDGNVVTSFKKRMFEVTESSVSSSSPGSGPSSPNNGPTGSVTENETSVLPPTPHAEQMVSQQRILIHEDSMNLLSLYTSPSLPNITLGLPAVPSQLNASNSLKEKQKCETQTLRQGVPLPGQYGGSIPASSSHPHVTLEGKPPNSSHQALLQHLLLKEQMRQQKLLVAGGVPLHPQSPLATKERISPGIRGTHKLPRHRPLNRTQSAPLPQSTLAQLVIQQQHQQFLEKQKQYQQQIHMNKLLSKSIEQLKQPGSHLEEAEEELQGDQAMQEDRAPSSGNSTRSDSSACVDDTLGQVGAVKVKEEPVDSDEDAQIQEMESGEQAAFMQQPFLEPTHTRALSVRQAPLAAVGMDGLEKHRLVSRTHSSPAASVLPHPAMDRPLQPGSATGIAYDPLMLKHQCVCGNSTTHPEHAGRIQSIWSRLQETGLLNKCERIQGRKASLEEIQLVHSEHHSLLYGTNPLDGQKLDPRILLGDDSQKFFSSLPCGGLGVDSDTIWNELRSSGAARMAVGCVIELASKVASGELKNGFAVVRPPGHHAEESTAMGFCFFNSVAITAKYLRDQLNISKILIVDLDVHHGNGTQQAFYADPSILYISLHRYDEGNFFPGSGAPNEVGTGLGEGYNINIAWTGGLDPPMGDVEYLEAFRTIVKPVAKEFDPDMVLVSAGFDALEGHTPPLGGYKVTAKCFGHLTKQLMTLADGRVVLALEGGHDLTAICDASEACVNALLGNELEPLAEDILHQSPNMNAVISLQKIIEIQSKYWKSVRMVAVPRGCALAGAQLQEETETVSALASLTVDVEQPFAQEDSRTAGEPMEEEPAL", "values": [
      {"measurement": "histone deacetylase activity relative to HDAC1", "result": "about 25%"},
      {"measurement": "histone deacetylase activity relative to HDACs 4 and 5", "result": "~50", "unit": "%"}
    ]}
  ]
}
